Experimental data published in patent publication US20260151494A1 (ARO BIOTHERAPEUTICS, published 2026).
Substitutions are numbered along the chain they refer to.

B1: CD71-binding FN3 domain SEQ ID NO: 235 (designed binder)
chain: MSLPAPKNLVVSRVTEDSARLSWTAPDAAFDSFEIVYAEPVRFGEAIVLTVPGSERSYDLTGLKPGTEYWVQIGGVKGGNWSAPLSAIFTT
B2: CD71-binding FN3 domain SEQ ID NO: 236 (designed binder)
chain: B1 chain with A25E, V36G, A38F, P40N, V41L, R42Y, F43L
B3: CD71-binding FN3 domain SEQ ID NO: 237 (designed binder)
chain: B1 chain with V36A, A38F, P40R, V41T, R42W, N80D, A83K
B4: CD71-binding FN3 domain SEQ ID NO: 238 (designed binder)
chain: B1 chain with V36G, A38F, P40N, V41D, R42Y, W70V, Q72F, N80K
B5: CD71-binding FN3 domain SEQ ID NO: 239 (designed binder)
chain: B1 chain with A38Q, P40N, V41S, R42A, F43Y
B6: CD71-binding FN3 domain SEQ ID NO: 242 (designed binder)
chain: B1 chain with V36G, A38F, P40N, V41L, R42Y, F43L, E68K
B7: CD71-binding FN3 domain SEQ ID NO: 244 (designed binder)
chain: MSLPAPKNLVVSRVTEDSARLSWTAPDAAFDSFEIGYFENLYLGEAIVLTVPGSERSYDLTGLKPGTEYVVFIGGVKGGEYSIPLSAIFTT
B8: CD71-binding FN3 domain SEQ ID NO: 246 (designed binder)
chain: MSLPAPKNLVVSRVTEDSARLSWTAPDAAFDSFEIAYQELSLWGEAIVLTVPGSERSYDLTGLKPGTEYYVHIGGVKGGIWSSPLSAYFTT
B9: CD71-binding FN3 domain SEQ ID NO: 247 (designed binder)
chain: B7 chain with V70W, F72Q, Y81W, I83A
B10: CD71-binding FN3 domain SEQ ID NO: 248 (designed binder)
chain: B7 chain with E80D, Y81F, I83P
B11: CD71-binding FN3 domain SEQ ID NO: 249 (designed binder)
chain: B7 chain with F38W, L41A, L43R, E80V, Y81W, I83V
B12: CD71-binding FN3 domain SEQ ID NO: 250 (designed binder)
chain: B7 chain with V70W, F72Q, K77N, E80N, Y81W, I83A
B13: CD71-binding FN3 domain SEQ ID NO: 251 (designed binder)
chain: B7 chain with V70W, F72Q, E80N, Y81W, I83A, S86V, I88T
B14: CD71-binding FN3 domain of SEQ ID NO: 133 (designed binder)
chain: MSLPAPKNLVVSRVTEDSARLSWTAPDAAFDSFKIKYAEYDRYGEAIALFVPGSERSYDLTGLKPGTEYFVHIDGVKGGTDSQPLVASFTT
B15: CD71-binding FN3 domain of SEQ ID NO: 134 (designed binder)
chain: MSLPAPKNLVVSRVTEDSARLSWTAPDAAFDSFDINYWENESGGEAIALFVPGSERSYDLTGLKPGTEYLVTIAGVKGGWWSKPLYATFTT
B16: CD71-binding FN3 domain of SEQ ID NO: 135 (designed binder)
chain: MSLPAPKNLVVSRVTEDSARLSWTAPDAAFDSFFIGYLEPQSPGEAIALYVPGSERSYDLTGLKPGTEYNVTIQGVKGGFPSEPLIANFTT
B17: CD71-binding FN3 domain of SEQ ID NO: 136 (designed binder)
chain: MSLPAPKNLVVSRVTEDSARLSWTAPDAAFDSFEIDYVEFIFTGEAIGLIVPGSERSYDLTGLKPGTEYWVTIAGVKGGEWSTPLQAFLTT
B18: CD71-binding FN3 domain of SEQ ID NO: 137 (designed binder)
chain: B16 chain with S42P, A48T, E83D, I86V, N88H
B19: CD71-binding FN3 domain of SEQ ID NO: 138 (designed binder)
chain: B16 chain with S42P, A46V, A48H, Y50F, E83M, I86S, N88I
B20: CD71-binding FN3 domain of SEQ ID NO: 140 (designed binder)
chain: B16 chain with S42P, A48H, E83M, I86S, N88I
B21: CD71-binding FN3 domain of SEQ ID NO: 142 (designed binder)
chain: MSLPAPKNLVVSRVTEDSARLSWTASDAAFDSFHIWYFEKANEGEAIPLVVPGSERSYDLTGLKPGTEYDVDIGGVKGGAWSIPLGARFTT
B22: CD71-binding FN3 domain of SEQ ID NO: 143 (designed binder)
chain: MSLPAPKNLVVSRVTEDSARLSWTAPDAAFDSFAIQYVEVIGSGEAIELIVPGSERSYDLTGLKPGTEYHVYIDGVKGGKDSKPLYAGFTT
B23: CD71-binding FN3 domain of SEQ ID NO: 145 (designed binder)
chain: B16 chain with S42P, Y50L, E83H, I86S, N88K
B24: CD71-binding FN3 domain of SEQ ID NO: 147 (designed binder)
chain: B16 chain with S42P, A48E, Y50F, E83G, N88S
B25: CD71-binding FN3 domain of SEQ ID NO: 161 (designed binder)
chain: B16 chain with S42P, A48V, Y50T, I86V, N88H
B26: CD71-binding FN3 domain of SEQ ID NO: 162 (designed binder)
chain: MSLPAPKNLVVSRVTEDSARLSWTALDAAFDSFEISYWEHTFNGEAIILFVPGSERSYDLTGLKPGTEYYVTIGGVKGGAWSPPLWAEFTT
B27: CD71-binding FN3 domain of SEQ ID NO: 163 (designed binder)
chain: MSLPAPKNLVVSRVTEDSARLSWTAPDAAFDSFFIGYLEPQPPGEVIHLYVPGSERSYDLTGLKPGTEYVVFIGGVKGGVWSVPLSAIFTT
B28: CD71-binding FN3 domain of SEQ ID NO: 167 (designed binder)
chain: B16 chain with S42P, A48V, Y50T, E83V, I86S, N88A
B29: CD71-binding FN3 domain of SEQ ID NO: 168 (designed binder)
chain: B16 chain with F34I, S42P, G44D, E83L, I86V, N88T
B30: CD71-binding FN3 domain of SEQ ID NO: 178 (designed binder)
chain: MGSLPAPKNLVVSRVTEDSARLSWTAPDAAFDSFFIGYLEPQPPGEAISLYVPGSERSYDLTGLKPGTEYNVTIQGVKGGFPSDPLVAHFTT
B31: CD71-binding FN3 domain of SEQ ID NO: 179 (designed binder)
chain: B16 chain with S42P, A48T, Y50L, E83H, I86V, N88T, F89T
B32: CD71-binding FN3 domain of SEQ ID NO: 180 (designed binder)
chain: B16 chain with S42P, A48S
B33: CD71-binding FN3 domain of SEQ ID NO: 197 (designed binder)
chain: B16 chain with S42P, A48S, Y50L, I86H, N88I
B34: CD71-binding FN3 domain of SEQ ID NO: 198 (designed binder)
chain: MSLPAPKNLVVSRVTEDSARLSWTAPDAAFDSFLIGYTEYSVYGEAIVLTVPGSERSYDLTGLKPGTEYTVWIMGVKGGIKSTPLSAISTT
B35: CD71-binding FN3 domain of SEQ ID NO: 204 (designed binder)
chain: MSLPAPKNLVVSRVTEDSARLSWTAPDAAFDSFLIQYDEWPTYGEAIVLTVPGSERSYDLTGLKPGTEYLVEIVGVKGGNLSGPLSAIFTT
B36: CD71-binding FN3 domain of SEQ ID NO: 218 (designed binder)
chain: MSLPAPKNLVVSRVTEDSARLSWTAPDAAFDSFEIAYHEDDFYGEAIALLVPGSERSYDLTGLKPGTEYIVHIGGVKGGFFSSPLYAWFTT

Key:
[1] = molecular target: T1, human CD71 extracellular domain (CD71-ECD) (human, UniProt P02786 89-760); assay: primary ELISA; also: test concentration or dose not given here
T1 construct: also called hCD71; human CD71-ECD
T1 sequence (P02786 89-760): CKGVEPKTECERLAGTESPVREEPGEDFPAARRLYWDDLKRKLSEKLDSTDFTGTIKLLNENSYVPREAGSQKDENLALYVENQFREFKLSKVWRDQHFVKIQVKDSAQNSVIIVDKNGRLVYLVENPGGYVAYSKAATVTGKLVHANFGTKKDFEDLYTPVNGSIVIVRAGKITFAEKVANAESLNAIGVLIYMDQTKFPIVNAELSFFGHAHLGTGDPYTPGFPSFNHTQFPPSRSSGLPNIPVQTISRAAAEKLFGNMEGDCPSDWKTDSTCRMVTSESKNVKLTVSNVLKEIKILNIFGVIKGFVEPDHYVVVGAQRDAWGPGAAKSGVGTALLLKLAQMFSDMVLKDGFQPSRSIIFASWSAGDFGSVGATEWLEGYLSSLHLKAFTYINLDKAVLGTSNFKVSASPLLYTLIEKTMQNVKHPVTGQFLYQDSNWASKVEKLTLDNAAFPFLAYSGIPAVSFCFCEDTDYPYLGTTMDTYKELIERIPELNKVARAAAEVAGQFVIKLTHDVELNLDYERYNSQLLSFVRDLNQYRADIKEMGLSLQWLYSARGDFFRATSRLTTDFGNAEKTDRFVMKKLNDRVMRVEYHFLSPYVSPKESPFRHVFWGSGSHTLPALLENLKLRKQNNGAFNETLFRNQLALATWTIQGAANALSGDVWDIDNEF

[2] = molecular target: T1, human CD71 extracellular domain …; assay: primary ELISA, RLU ratio to HSA
[3] = molecular target: T2, apical domain of cynomolgus CD71 (cynomolgus, UniProt A0A2K5X958 189-383); assay: primary ELISA; also: test concentration or dose not given here
T2 construct: domain: apical domain; also called Cyno apical domain
T2 sequence (A0A2K5X958 entry or part of it): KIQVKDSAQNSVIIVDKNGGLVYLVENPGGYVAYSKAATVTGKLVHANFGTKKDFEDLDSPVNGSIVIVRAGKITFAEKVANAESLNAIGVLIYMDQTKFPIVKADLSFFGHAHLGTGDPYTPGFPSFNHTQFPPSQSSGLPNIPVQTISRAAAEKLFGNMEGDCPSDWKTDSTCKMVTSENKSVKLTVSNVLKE

[4] = molecular target: T3, human CD71 extracellular domain (human, UniProt P02786 89-760); assay: primary ELISA; also: test concentration or dose not given here
T3 construct: also called hCD71; human CD71-ECD
T3 sequence (P02786 89-760): as the sequence (P02786 89-760) above

[5] = molecular target: T2, apical domain of cynomolgus CD71; assay: primary ELISA, signal ratio to HSA
[6] = molecular target: T3, human CD71 extracellular domain; assay: primary ELISA, signal ratio to HSA

| Binder | RLU [1] [RLU] | hCD71:HSA [2] | RLU [3] [RLU] | RLU [4] [RLU] | Cyno apical domain:HSA [5] | hCD71:HSA [6] |
| --- | --- | --- | --- | --- | --- | --- |
| B1 | 3.8e+06 | 376 | – | – | – | – |
| B2 | 3.29e+06 | 101 | – | – | – | – |
| B3 | 3.98e+06 | 535 | – | – | – | – |
| B4 | 3.86e+06 | 576 | – | – | – | – |
| B5 | 1.88e+06 | 154 | – | – | – | – |
| B6 | 1.61e+06 | 165 | – | – | – | – |
| B7 | 3.25e+06 | 392 | – | – | – | – |
| B8 | 3.68e+06 | 362 | – | – | – | – |
| B9 | 2.89e+06 | 442 | – | – | – | – |
| B10 | 3.49e+06 | 375 | – | – | – | – |
| B11 | 3.02e+06 | 350 | – | – | – | – |
| B12 | 3.41e+06 | 140 | – | – | – | – |
| B13 | 4.09e+06 | 724 | – | – | – | – |
| B14 | – | – | 5.11e+06 | 1.83e+06 | 387 | 138 |
| B15 | – | – | 5.77e+06 | 4.52e+06 | 245 | 192 |
| B16 | – | – | 6.07e+06 | 5.86e+06 | 232 | 224 |
| B17 | – | – | 4.46e+06 | 4.08e+06 | 298 | 273 |
| B18 | – | – | 5.96e+06 | 7.03e+06 | 218 | 257 |

| Binder | RLU [1] [RLU] | hCD71:HSA [2] | RLU [3] [RLU] | RLU [4] [RLU] | Cyno apical domain:HSA [5] | hCD71:HSA [6] |
| --- | --- | --- | --- | --- | --- | --- |
| B19 | – | – | 6.59e+06 | 5.91e+06 | 275 | 246 |
| B20 | – | – | 7.01e+06 | 5.72e+06 | 199 | 163 |
| B21 | – | – | 5.27e+06 | 3.57e+06 | 95 | 65 |
| B22 | – | – | 4.41e+06 | 2.91e+06 | 142 | 94 |
| B23 | – | – | 6.36e+06 | 5.14e+06 | 196 | 158 |
| B24 | – | – | 6.67e+06 | 5.56e+06 | 208 | 173 |
| B25 | – | – | 6.09e+06 | 5.73e+06 | 14 | 13 |
| B26 | – | – | 5.49e+06 | 4.46e+06 | 296 | 240 |
| B27 | – | – | 5.14e+06 | 1.5e+06 | 225 | 65 |
| B28 | – | – | 5.93e+06 | 4.72e+06 | 83 | 66 |
| B29 | – | – | 4.84e+06 | 3.94e+06 | 39 | 32 |
| B30 | – | – | 5.99e+06 | 7.01e+06 | 272 | 319 |
| B31 | – | – | 4.71e+06 | 4.11e+06 | 45 | 39 |
| B32 | – | – | 6.09e+06 | 6.68e+06 | 251 | 275 |
| B33 | – | – | 6.23e+06 | 3.4e+06 | 66 | 36 |
| B34 | – | – | 4.95e+06 | 3.62e+06 | 116 | 84 |
| B35 | – | – | 5.46e+06 | 4.09e+06 | 325 | 243 |
| B36 | – | – | 4.72e+06 | 2.42e+06 | 149 | 77 |
